The values below come from patent publication US20210179716A1 (Pfizer, published 2021).

Common to all, as to test: KD; method not stated
One experiment concerns the target T1, cynomolgus PD-L1 protein (cynomolgus monkey, UniProt G7PSE7 19-238).
T1 construct: also called cyPD-L1; Cyno PD-L1

Another experiment has as its target T2, human PD-L1 protein (human, UniProt Q9NZQ7 19-238).
T2 construct: Soluble protein used for the KD measurements; construct not described; also called hPD-L1; CD274

Another experiment deals with T3, human CD47 protein (human, UniProt Q08722 19-139, limits assumed).
T3 construct: Soluble protein used for the KD measurements; construct not described; also called hCD47; CD47 (human)

The target in the next experiment is T4, cynomolgus CD47 protein (cynomolgus monkey, UniProt A0A2K5X523 19-139).
T4 construct: also called cyCD47; Cyno CD47

T3 sequence (Q08722 19-139 limits assumed): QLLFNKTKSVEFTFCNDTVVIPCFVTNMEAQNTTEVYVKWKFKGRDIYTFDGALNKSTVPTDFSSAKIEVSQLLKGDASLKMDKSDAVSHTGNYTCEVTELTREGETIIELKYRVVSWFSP
T2 sequence (Q9NZQ7 19-238 limits assumed): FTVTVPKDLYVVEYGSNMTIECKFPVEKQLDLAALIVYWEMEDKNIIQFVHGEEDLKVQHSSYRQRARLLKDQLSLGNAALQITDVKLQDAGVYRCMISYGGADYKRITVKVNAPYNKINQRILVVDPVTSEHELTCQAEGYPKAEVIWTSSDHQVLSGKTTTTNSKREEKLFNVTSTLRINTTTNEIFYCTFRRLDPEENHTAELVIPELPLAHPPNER
T1 sequence (G7PSE7 entry or part of it): as the sequence (Q9NZQ7 19-238 limits assumed) above, with A33T, A34S, S62N, R68Q, Q82R, F173L, T185A, T192I, H215L counted along it

B1: P06B05_D56E_G57E (antibody, V domains shown)
VH: EVQLVESGGGLVKPGGSLRLSCAASGFTFSNAWMNWVRQAPGKGLEWVGRIKTKAEEGTTDYAAPVKGRFTISRDDSKNTLYLQMNSLKTEDTAVYYCTTDPGSYWDSVYGGMDYWGQGTLVTVSS
VL: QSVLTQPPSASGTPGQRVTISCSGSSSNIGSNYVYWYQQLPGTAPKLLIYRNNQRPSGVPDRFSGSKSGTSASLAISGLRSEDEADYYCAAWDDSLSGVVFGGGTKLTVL
notes: Variant of P06B05
One may read the Kd as a measure of binding affinity in units of concentration. Turning to B1, the Kd stood at 60.6 nM with cynomolgus PD-L1 protein and 69.7 nM with human PD-L1 protein.

B2: P06B05_D61A_Y62E (antibody, V domains shown)
VH: EVQLVESGGGLVKPGGSLRLSCAASGFTFSNAWMNWVRQAPGKGLEWVGRIKTKADGGTTAEAAPVKGRFTISRDDSKNTLYLQMNSLKTEDTAVYYCTTDPGSYWDSVYGGMDYWGQGTLVTVSS
VL: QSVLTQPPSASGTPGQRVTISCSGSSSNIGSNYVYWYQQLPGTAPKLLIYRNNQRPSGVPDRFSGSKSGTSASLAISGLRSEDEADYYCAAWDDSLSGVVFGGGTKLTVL
notes: Variant of P06B05
In the case of B2, the Kd with cynomolgus PD-L1 protein came out at 3.17 nM; in the experiment with human PD-L1 protein it was 3.28 nM.

B3: P06B05_D61Q_Y62E (antibody, V domains shown)
VH: EVQLVESGGGLVKPGGSLRLSCAASGFTFSNAWMNWVRQAPGKGLEWVGRIKTKADGGTTQEAAPVKGRFTISRDDSKNTLYLQMNSLKTEDTAVYYCTTDPGSYWDSVYGGMDYWGQGTLVTVSS
VL: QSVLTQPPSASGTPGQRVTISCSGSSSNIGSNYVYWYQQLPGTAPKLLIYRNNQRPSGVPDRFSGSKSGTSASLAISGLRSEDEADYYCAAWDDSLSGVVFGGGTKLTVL
notes: Variant of P06B05
As to B3, the dissociation constant (Kd) in the experiment with cynomolgus PD-L1 protein came out at 4.43 nM; with human PD-L1 protein, 5.81 nM.

B4: P06B05_D61A_Y62Q (antibody, V domains shown)
VH: EVQLVESGGGLVKPGGSLRLSCAASGFTFSNAWMNWVRQAPGKGLEWVGRIKTKADGGTTAQAAPVKGRFTISRDDSKNTLYLQMNSLKTEDTAVYYCTTDPGSYWDSVYGGMDYWGQGTLVTVSS
VL: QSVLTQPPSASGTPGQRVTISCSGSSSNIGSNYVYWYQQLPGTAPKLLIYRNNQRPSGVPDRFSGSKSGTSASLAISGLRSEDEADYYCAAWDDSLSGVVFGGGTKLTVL
notes: Variant of P06B05
Regarding B4, the Kd came out at 4.96 nM with cynomolgus PD-L1 protein and 5.97 nM in the experiment with human PD-L1 protein.

B5: P06B05_D61A_Y62S (antibody, V domains shown)
VH: EVQLVESGGGLVKPGGSLRLSCAASGFTFSNAWMNWVRQAPGKGLEWVGRIKTKADGGTTASAAPVKGRFTISRDDSKNTLYLQMNSLKTEDTAVYYCTTDPGSYWDSVYGGMDYWGQGTLVTVSS
VL: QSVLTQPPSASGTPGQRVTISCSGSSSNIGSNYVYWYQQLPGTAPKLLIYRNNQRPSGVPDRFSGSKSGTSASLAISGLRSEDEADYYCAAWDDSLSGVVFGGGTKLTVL
notes: Variant of P06B05
On to B5, for which the dissociation constant Kd in the experiment with cynomolgus PD-L1 protein amounted to 2.75 nM; in the experiment with human PD-L1 protein, 5.37 nM.

B6: P06B05_D61A_Y62A (antibody, V domains shown)
VH: EVQLVESGGGLVKPGGSLRLSCAASGFTFSNAWMNWVRQAPGKGLEWVGRIKTKADGGTTAAAAPVKGRFTISRDDSKNTLYLQMNSLKTEDTAVYYCTTDPGSYWDSVYGGMDYWGQGTLVTVSS
VL: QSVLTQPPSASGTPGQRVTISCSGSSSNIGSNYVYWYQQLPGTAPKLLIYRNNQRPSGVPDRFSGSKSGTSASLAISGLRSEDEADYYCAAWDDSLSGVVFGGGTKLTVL
notes: Variant of P06B05
For the molecule B6, the Kd with cynomolgus PD-L1 protein was found to be 3.67 nM; with human PD-L1 protein, 4.01 nM.

B7: P06B05_D61E_Y62E (antibody, V domains shown)
VH: EVQLVESGGGLVKPGGSLRLSCAASGFTFSNAWMNWVRQAPGKGLEWVGRIKTKADGGTTEEAAPVKGRFTISRDDSKNTLYLQMNSLKTEDTAVYYCTTDPGSYWDSVYGGMDYWGQGTLVTVSS
VL: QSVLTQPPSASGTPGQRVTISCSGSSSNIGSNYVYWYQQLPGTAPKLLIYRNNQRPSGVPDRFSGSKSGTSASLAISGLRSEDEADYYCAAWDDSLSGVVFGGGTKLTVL
notes: Variant of P06B05
Turning to B7, the Kd with cynomolgus PD-L1 protein turned out to be 8.39 nM; with human PD-L1 protein, 9.49 nM.

B8: P1A11_M113I (antibody, V domains shown)
VH: QVQLVQSGAEVKKPGSSVKVSCKASGYTFTNYAISWVRQAPGQGLEWMGGISPLFGTANYAQKFQGRVTITADESTSTAYMELSSLRSEDTAVYYCARDGGRSSDVGWYVGAIDVWGQGTLVTVSS
VL: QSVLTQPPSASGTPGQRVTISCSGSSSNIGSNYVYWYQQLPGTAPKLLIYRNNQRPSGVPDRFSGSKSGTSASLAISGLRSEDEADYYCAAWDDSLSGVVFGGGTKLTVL
notes: Variant of P01A11
In the case of B8, the Kd with human CD47 protein is 2.9 nM; in the experiment with cynomolgus CD47 protein it was 3.7 nM.

B9: P01A11_P53G_D114E (antibody, V domains shown)
VH: QVQLVQSGAEVKKPGSSVKVSCKASGYTFTNYAISWVRQAPGQGLEWMGGISGLFGTANYAQKFQGRVTITADESTSTAYMELSSLRSEDTAVYYCARDGGRSSDVGWYVGAMEVWGQGTLVTVSS
VL: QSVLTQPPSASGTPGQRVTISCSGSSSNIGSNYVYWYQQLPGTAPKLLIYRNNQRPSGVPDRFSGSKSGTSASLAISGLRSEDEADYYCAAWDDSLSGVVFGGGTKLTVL
notes: Variant of P01A11
B9: the Kd with human CD47 protein is 300 nM; with cynomolgus CD47 protein, 520 nM.

B10: P01A11_P53G_D105E (antibody, V domains shown)
VH: QVQLVQSGAEVKKPGSSVKVSCKASGYTFTNYAISWVRQAPGQGLEWMGGISGLFGTANYAQKFQGRVTITADESTSTAYMELSSLRSEDTAVYYCARDGGRSSEVGWYVGAMDVWGQGTLVTVSS
VL: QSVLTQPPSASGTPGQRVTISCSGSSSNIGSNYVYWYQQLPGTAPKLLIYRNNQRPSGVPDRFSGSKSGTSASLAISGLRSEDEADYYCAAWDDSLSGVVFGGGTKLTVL
notes: Variant of P01A11
Turning to B10, the Kd with human CD47 protein came out at 241 nM; in the experiment with cynomolgus CD47 protein, 351 nM.

B11: P1A11_N31S (antibody, V domains shown)
VH: QVQLVQSGAEVKKPGSSVKVSCKASGYTFTSYAISWVRQAPGQGLEWMGGISPLFGTANYAQKFQGRVTITADESTSTAYMELSSLRSEDTAVYYCARDGGRSSDVGWYVGAMDVWGQGTLVTVSS
VL: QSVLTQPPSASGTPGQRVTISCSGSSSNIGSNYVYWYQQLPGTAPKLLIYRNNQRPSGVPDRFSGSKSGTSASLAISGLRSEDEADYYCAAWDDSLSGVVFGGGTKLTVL
notes: Variant of P01A11
As for B11, the equilibrium dissociation constant (Kd) with human CD47 protein was 7 nM; with cynomolgus CD47 protein, 9.3 nM.

B12: P01A11_Y27G_N31S_L54I_G100A_M113L (antibody, V domains shown)
VH: QVQLVQSGAEVKKPGSSVKVSCKASGGTFTSYAISWVRQAPGQGLEWMGGISPIFGTANYAQKFQGRVTITADESTSTAYMELSSLRSEDTAVYYCARDAGRSSDVGWYVGALDVWGQGTLVTVSS
VL: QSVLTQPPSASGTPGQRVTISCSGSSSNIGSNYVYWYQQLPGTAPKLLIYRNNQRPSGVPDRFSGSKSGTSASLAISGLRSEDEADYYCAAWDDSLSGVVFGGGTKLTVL
notes: Variant of P01A11
B12: the Kd in the experiment with human CD47 protein was 497 nM; with cynomolgus CD47 protein, 704 nM.

B13: P01A11_T30S_N31S_L54I_G100A_M113L (antibody, V domains shown)
VH: QVQLVQSGAEVKKPGSSVKVSCKASGYTFSSYAISWVRQAPGQGLEWMGGISPIFGTANYAQKFQGRVTITADESTSTAYMELSSLRSEDTAVYYCARDAGRSSDVGWYVGALDVWGQGTLVTVSS
VL: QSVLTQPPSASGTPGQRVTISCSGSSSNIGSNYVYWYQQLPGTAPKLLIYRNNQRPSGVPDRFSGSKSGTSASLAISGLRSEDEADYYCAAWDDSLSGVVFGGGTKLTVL
notes: Variant of P01A11
In the case of B13, the Kd with human CD47 protein is 106 nM; with cynomolgus CD47 protein, 120 nM.

B14: P1A11_W108F (antibody, V domains shown)
VH: QVQLVQSGAEVKKPGSSVKVSCKASGYTFTNYAISWVRQAPGQGLEWMGGISPLFGTANYAQKFQGRVTITADESTSTAYMELSSLRSEDTAVYYCARDGGRSSDVGFYVGAMDVWGQGTLVTVSS
VL: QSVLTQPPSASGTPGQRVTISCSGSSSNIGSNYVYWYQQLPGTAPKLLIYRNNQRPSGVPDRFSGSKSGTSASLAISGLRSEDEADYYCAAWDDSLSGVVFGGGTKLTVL
notes: Variant of P01A11
Regarding B14, the figures for the Kd with human CD47 protein and in the experiment with cynomolgus CD47 protein were 103 nM and 117 nM, respectively.

B15: P1A11_S52I (antibody, V domains shown)
VH: QVQLVQSGAEVKKPGSSVKVSCKASGYTFTNYAISWVRQAPGQGLEWMGGIIPLFGTANYAQKFQGRVTITADESTSTAYMELSSLRSEDTAVYYCARDGGRSSDVGWYVGAMDVWGQGTLVTVSS
VL: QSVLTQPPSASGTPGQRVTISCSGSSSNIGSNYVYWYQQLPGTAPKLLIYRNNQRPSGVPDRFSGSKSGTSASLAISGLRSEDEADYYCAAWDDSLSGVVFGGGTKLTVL
notes: Variant of P01A11
For B15, the Kd in the experiment with human CD47 protein is 1310 nM; with cynomolgus CD47 protein, more than 1500 nM.

B16: P01A11_Y27G_L54I_G100A_M113I (antibody, V domains shown)
VH: QVQLVQSGAEVKKPGSSVKVSCKASGGTFTNYAISWVRQAPGQGLEWMGGISPIFGTANYAQKFQGRVTITADESTSTAYMELSSLRSEDTAVYYCARDAGRSSDVGWYVGAIDVWGQGTLVTVSS
VL: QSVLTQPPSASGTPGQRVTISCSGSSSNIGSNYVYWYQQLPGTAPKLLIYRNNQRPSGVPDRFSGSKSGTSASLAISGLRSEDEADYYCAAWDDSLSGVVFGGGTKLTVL
notes: Variant of P01A11
As for B16, the figures for the dissociation constant Kd with human CD47 protein and with cynomolgus CD47 protein were 263 nM and 371 nM, respectively.

B17: P01A11_T30S_N31S_L54I_G100A (antibody, V domains shown)
VH: QVQLVQSGAEVKKPGSSVKVSCKASGYTFSSYAISWVRQAPGQGLEWMGGISPIFGTANYAQKFQGRVTITADESTSTAYMELSSLRSEDTAVYYCARDAGRSSDVGWYVGAMDVWGQGTLVTVSS
VL: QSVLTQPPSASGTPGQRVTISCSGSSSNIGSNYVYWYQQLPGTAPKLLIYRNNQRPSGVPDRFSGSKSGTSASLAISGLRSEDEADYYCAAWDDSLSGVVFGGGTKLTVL
notes: Variant of P01A11
Consider B17, for which the Kd in the experiment with human CD47 protein was 97 nM; in the experiment with cynomolgus CD47 protein, 138 nM.

B18: P01A11_T30S_N31S_L54I_G100A_M113I (antibody, V domains shown)
VH: QVQLVQSGAEVKKPGSSVKVSCKASGYTFSSYAISWVRQAPGQGLEWMGGISPIFGTANYAQKFQGRVTITADESTSTAYMELSSLRSEDTAVYYCARDAGRSSDVGWYVGAIDVWGQGTLVTVSS
VL: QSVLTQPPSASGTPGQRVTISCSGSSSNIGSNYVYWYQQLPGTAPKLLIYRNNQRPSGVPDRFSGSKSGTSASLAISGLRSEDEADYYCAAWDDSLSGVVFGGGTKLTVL
notes: Variant of P01A11
Take B18: the Kd in the experiment with human CD47 protein was 75 nM; with cynomolgus CD47 protein, 105 nM.

B19: P1A11_Y27G (antibody, V domains shown)
VH: QVQLVQSGAEVKKPGSSVKVSCKASGGTFTNYAISWVRQAPGQGLEWMGGISPLFGTANYAQKFQGRVTITADESTSTAYMELSSLRSEDTAVYYCARDGGRSSDVGWYVGAMDVWGQGTLVTVSS
VL: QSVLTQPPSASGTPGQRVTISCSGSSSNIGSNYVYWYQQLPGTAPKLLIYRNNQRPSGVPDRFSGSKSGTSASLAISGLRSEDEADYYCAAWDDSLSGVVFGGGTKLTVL
notes: Variant of P01A11
B19: the Kd with human CD47 protein came out at 20 nM; in the experiment with cynomolgus CD47 protein, 23 nM.

B20: P01A11_P53G (antibody, V domains shown)
VH: QVQLVQSGAEVKKPGSSVKVSCKASGYTFTNYAISWVRQAPGQGLEWMGGISGLFGTANYAQKFQGRVTITADESTSTAYMELSSLRSEDTAVYYCARDGGRSSDVGWYVGAMDVWGQGTLVTVSS
VL: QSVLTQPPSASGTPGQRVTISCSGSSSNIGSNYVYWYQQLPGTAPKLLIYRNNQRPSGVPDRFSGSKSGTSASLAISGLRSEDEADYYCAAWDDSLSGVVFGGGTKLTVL
notes: Variant of P01A11
Regarding B20, the figures for the dissociation constant Kd in the experiment with human CD47 protein and with cynomolgus CD47 protein were 5.6 nM and 7.6 nM, respectively.

B21: P1A11_M113L (antibody, V domains shown)
VH: QVQLVQSGAEVKKPGSSVKVSCKASGYTFTNYAISWVRQAPGQGLEWMGGISPLFGTANYAQKFQGRVTITADESTSTAYMELSSLRSEDTAVYYCARDGGRSSDVGWYVGALDVWGQGTLVTVSS
VL: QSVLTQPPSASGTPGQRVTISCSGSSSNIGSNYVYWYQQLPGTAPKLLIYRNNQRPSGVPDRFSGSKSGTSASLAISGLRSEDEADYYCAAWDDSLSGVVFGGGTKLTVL
notes: Variant of P01A11
Regarding B21, the results for the Kd with human CD47 protein and with cynomolgus CD47 protein were 0.86 nM and 1.2 nM, respectively.

B22: P01A11_Y27G_L54I_G100A_M113L (antibody, V domains shown)
VH: QVQLVQSGAEVKKPGSSVKVSCKASGGTFTNYAISWVRQAPGQGLEWMGGISPIFGTANYAQKFQGRVTITADESTSTAYMELSSLRSEDTAVYYCARDAGRSSDVGWYVGALDVWGQGTLVTVSS
VL: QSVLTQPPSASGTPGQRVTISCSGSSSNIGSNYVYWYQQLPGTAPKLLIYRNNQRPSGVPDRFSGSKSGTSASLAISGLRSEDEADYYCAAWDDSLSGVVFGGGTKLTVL
notes: Variant of P01A11
Regarding B22, the Kd was determined as 154 nM in the experiment with human CD47 protein and 198 nM in the experiment with cynomolgus CD47 protein.

B23: P01A11_W108A (antibody, V domains shown)
VH: QVQLVQSGAEVKKPGSSVKVSCKASGYTFTNYAISWVRQAPGQGLEWMGGISPLFGTANYAQKFQGRVTITADESTSTAYMELSSLRSEDTAVYYCARDGGRSSDVGAYVGAMDVWGQGTLVTVSS
VL: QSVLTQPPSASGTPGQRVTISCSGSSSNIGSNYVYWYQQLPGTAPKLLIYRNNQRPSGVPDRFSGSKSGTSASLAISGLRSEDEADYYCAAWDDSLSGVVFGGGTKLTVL
notes: Variant of P01A11
On to B23, for which the Kd with human CD47 protein was found to be 608 nM; with cynomolgus CD47 protein it was 773 nM.

B24: P01A11_T30S_N31S_L54I_G100A_W108Y_M113L (antibody, V domains shown)
VH: QVQLVQSGAEVKKPGSSVKVSCKASGYTFSSYAISWVRQAPGQGLEWMGGISPIFGTANYAQKFQGRVTITADESTSTAYMELSSLRSEDTAVYYCARDAGRSSDVGYYVGALDVWGQGTLVTVSS
VL: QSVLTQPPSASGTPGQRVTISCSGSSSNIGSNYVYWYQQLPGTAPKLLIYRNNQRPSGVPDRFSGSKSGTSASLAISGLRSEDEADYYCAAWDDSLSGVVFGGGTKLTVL
notes: Variant of P01A11
For the molecule B24, the Kd with human CD47 protein and with cynomolgus CD47 protein was more than 1500 nM throughout.

B25: P01A11_Y27G_L54I_G100A (antibody, V domains shown)
VH: QVQLVQSGAEVKKPGSSVKVSCKASGGTFTNYAISWVRQAPGQGLEWMGGISPIFGTANYAQKFQGRVTITADESTSTAYMELSSLRSEDTAVYYCARDAGRSSDVGWYVGAMDVWGQGTLVTVSS
VL: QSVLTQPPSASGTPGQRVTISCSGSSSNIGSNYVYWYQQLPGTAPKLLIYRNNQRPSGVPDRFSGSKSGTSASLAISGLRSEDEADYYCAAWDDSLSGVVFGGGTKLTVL
notes: Variant of P01A11
Regarding B25, the dissociation constant Kd with human CD47 protein is 132 nM; with cynomolgus CD47 protein, 180 nM.

B26: P1A11_W108Y (antibody, V domains shown)
VH: QVQLVQSGAEVKKPGSSVKVSCKASGYTFTNYAISWVRQAPGQGLEWMGGISPLFGTANYAQKFQGRVTITADESTSTAYMELSSLRSEDTAVYYCARDGGRSSDVGYYVGAMDVWGQGTLVTVSS
VL: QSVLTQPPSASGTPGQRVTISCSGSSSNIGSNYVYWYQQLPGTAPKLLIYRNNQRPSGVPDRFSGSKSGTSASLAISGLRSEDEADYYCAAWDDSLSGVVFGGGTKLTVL
notes: Variant of P01A11
Turning to B26, the Kd is 25 nM with human CD47 protein and 32 nM in the experiment with cynomolgus CD47 protein.

B27: P1A11_T30S (antibody, V domains shown)
VH: QVQLVQSGAEVKKPGSSVKVSCKASGYTFSNYAISWVRQAPGQGLEWMGGISPLFGTANYAQKFQGRVTITADESTSTAYMELSSLRSEDTAVYYCARDGGRSSDVGWYVGAMDVWGQGTLVTVSS
VL: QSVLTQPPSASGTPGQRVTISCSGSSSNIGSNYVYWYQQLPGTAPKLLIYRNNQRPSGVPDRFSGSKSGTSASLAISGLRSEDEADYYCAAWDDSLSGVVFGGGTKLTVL
notes: Variant of P01A11
Turning to B27, the results for the Kd with human CD47 protein and with cynomolgus CD47 protein were 1.8 nM and 2.5 nM, respectively.
